Measured values: patent US20220249439A1 (FRED HUTCHINSON CANCER RESEARCH CENTER, published 2022)

Target: T1, eIF4E (mouse, endogenous in Pten^L/L prostate tissue) (mouse, UniProt P63073 2-217)
T1 construct: Endogenous protein in mouse prostate tumor tissue, detected with an antibody (SCBT) in a proximity ligation assay; also called eIF4E translation initiation factor; eukaryotic translation initiation factor 4E
Assay: in situ proximity ligation assay on castrate vs intact Pten^L/L mouse prostate tumors; confirmed by m7GTP cap-binding assay
Protocol: Flash frozen intact and castrate Pten^{L/L} ventral prostates dissected from each animal or from AR+ parental and AR− APIPC tumors were pulverized with mortar and pestle in appropriate volumes of lysis buffer containing 10 mM Tris/HCL pH 7.6, 140 mM KCl, 4 mM MgCl₂, 1 mM DTT, 1 mM EDTA, 1% Nonidet P-40 supplemented with phosphatase and protease inhibitor cocktails (Roche) and lysed for 30 min on ice. Lysates were cleared by centrifugation at 12000 rpm for 25 min at 4° C. Supernatants were collected and assayed for protein concentration using the Protein Assay Dye Reagent (Bio-Rad). 250 μg of protein were incubated rotating with 50 μl of γ-aminophenyl-m7GTP (C10-spacer)-agarose beads (Jena Bioscience) in lysis buffer without Nonidet P-40 at 4° C. overnight. After two washes in lysis buffer containing 0.5% Nonidet P-40 and two washes in PBS, beads were re-suspended in 60 μl of 1×SDS loading buffer and boiled for 5 min. Thirty microliters of boiled lysates were western blotted for eIF4G, eIF4E, and 4EBP1.
To test this hypothesis, proximity ligation assays (PLA) for eIF4E-eIF4G interactions and eIF4E-4EBP1 interactions were optimized (FIG. 2A). […] This was also confirmed by the cap-binding assay (FIG. 11A). […]

T1 sequence (P63073 2-217 limits assumed): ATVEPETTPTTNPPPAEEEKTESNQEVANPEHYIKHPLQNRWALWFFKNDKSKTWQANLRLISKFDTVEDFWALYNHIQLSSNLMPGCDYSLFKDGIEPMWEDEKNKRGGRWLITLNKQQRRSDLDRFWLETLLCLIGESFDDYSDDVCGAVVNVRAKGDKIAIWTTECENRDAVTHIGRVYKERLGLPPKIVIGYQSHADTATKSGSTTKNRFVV

binding result: binds
B1: 4EBP1 (mouse, endogenous in Pten^L/L prostate tissue) (other, UniProt Q60876 2-117, looked up)
chain: SAGSSCSQTPSRAIPTRRVALGDGVQLPPGDYSTTPGGTLFSTTPGGTRIIYDRKFLMECRNSPVAKTPPKDLPAIPGVTSPTSDEPPMQASQSQLPSSPEDKRAGGEESQFEMDI
notes: Endogenous protein
